{
  "source": "the DeepSol protein solubility set",
  "data": [
    {"assay": "soluble on expression in E. coli; label from the status in PepcDB or PDB records", "values": [
      {"sequence": "MDESFDSSVVPGSLTSDDRAIFNEQTLKNGDENSKSSLEVMANCVYLANSTILRERKVIPAEYFQDFQVYGDVSGYTLRQDIPEGRSVSSKLLASHDAIRQKLLQKLAIVVEESLNTNPVETFVWTFVYDSTTSASAEIGYGGRKSKFVVNYLNMDDTAQQFCKMFSELRNVLSLLRPLPRGLIPSMKVAYRGEPEFVPGFQQVDDFVNPEQINLGAVSFPHGNGFQFAYASKFMVEQPSAIRPPVEVSHFEDDLLNSTITPIEVVRDNTMNCAENPELDEIYFSPGRQEVRMDEDVANESIRCNPSMASEMMVLQSEYNVLIADNDEVPMVVERERSPIVKAAKKRSTRAPAVPITPTEPASPVESPVKEQPQKAPKAQMRRSSKRTTKNNERCEQKEEEPIVNPKRRSARRLVPPVEVDEQPEEQNDDDAQNSLQIDSDAQNSLQIDSDAIITSPEKRNESKSAIPEEAADLDNTTSEKQESSTARYGVSNTSINRKKPDPVANPVSEEAQVDLANGSIPDKRPRKRKYGRVSSILDVADLPTDDTVEEDVRESPIYGRVPSILDVARAEENDAQNDAQDAQNEIAVEGLADLSIDTEQHEEAAPINVTGHQSESVPIIVTEHQSEEAQTVVTEQPAGAASVIAAERHYGRVSSILDVAGSFADVDPSGAAPAIATERHYGRVSSILDVAGSLSDVDPQEDTESSTQNQSTSKKFKPNPPKAMRYGQSPNMPSRRGN", "soluble on expression in E. coli": "not soluble"},
      {"sequence": "MGHHHHHHSHMGNCCWTQCFGLLRKEAGRLQRVGGGGGSKYFRTCSRGEHLTIEFENLVESDEGESPGSSHRPLTEEEIVDLRERHYDSIAEKQKDLDKKIQKEQERQRIVQQYHPSNNGEYQSSGPEDDFESCLRNMKSQYEVFRSSRLSSDATVLTPNTESSCDLMTKTKSTSGNDDSTSLDLEWEDEEGMNRMLPMRERSKTEEDILRAALKYSNKETGSNPTSASDDSNGLEWENDFVSAEMDDNGNSEYSGFVNPVLELSDSGIRHSDTDQQTR", "soluble on expression in E. coli": "soluble"},
      {"sequence": "DRLTEEYGMHVYGIEFDEDRIIELRDRGYRIVAGDVTDPELWRRIELLDIPQLFAMSLPRYTDSDKVLARIHHDYPGATVATITQTRGREQALLTAGADVAVYLYEGVGDELADQAVAHLRQG", "soluble on expression in E. coli": "not soluble"},
      {"sequence": "MSLAYGNINQPFSLESLPDELIPENLYQIETDSSRVFQRHQCRRLAHLLLFQLLKIAGKSTALLSQIHRTESGRPYFLDERIDFNISHSGDWVAVILDIRNEEKSAVGIDIEFPKIRNFTALMEHIAPKEEIDWFHHQQDSLNAFYRCWCLREAVLKSQGFGIVKLSNVRHFPEQQKIFSDYCPQGQLWFTDELPIYLAAFVNHQEKLPHFYEWNRESLQIKELEKYVLYEVNEGHHHHHH", "soluble on expression in E. coli": "not soluble"},
      {"sequence": "MNKNLKFTQMMIGISTMALSFGSIQTHVSAEETASYNILQMKPIGTETSKDEIVHATKADETLTFEERLKVGDFSQRPTLVMERDEIQLKQSYTLAELNKMPNSELIDTLSKISWNQITDLFQFNQDTKAFYQNKERMNVIINELGQRGRTFTKENSKGIETFVEVLRSAFYVGYYNNELSYLKERSFHEKCLPALKAIAKNPNFTLGTAEQDRVVAAYGKLIGNASSDTETVQYAVNVLKQYNDNLTTYVSDYAKGQAVYEIVKGIDYDIQSYLQDTNKQPNETMWYGKIDNFINEVNRIALVGNITNENSWLINNGIYYAGRLGKFHSNPYKGLEVITQAMSLYPRLSGPYFVAVEQIKTNYGGKDYSGKAVDLQKIREEGKRQYLPKTYTFDDGSIVFKTGDKVTEEKIKRLYWAAKEVKAQYHRVIGNDKALEPGNADDVLTIVIYNNPDEYQLNRQLYGYETNNGGIYIEEKRTFFTYERTPKQSIYSLEELFRHEFTHYLQGRYEVPGLFGSGEMYQNERLTWFQEGNAEFFAGSTRTNNVVPRKSMISGLSSDPASRYTAKQTLFSKYGSWDFYKYSFALQSYLYNHQFDTFDKLQDLIRVNDVKNYDSYRESLSNNTQLNAEYQAYMQQLIDNQDKYNVPQVTNDYLIQHAPKPLAEVKNEIVDVANIKDAKITKYESQFFNTFTVEGKYTGGTSKGESEDWKTMSKQVNRTLEQLSQKGWSGYKTVTAYFVNYRVNAANQFEYDIVFHGVATEEKEKTNTIVNMNGPYSGIVNEEIQFHSDGTKSENGKVTSYLWNFGDGTTSTEANPTHVYEEKGTYTVELTVKDRRGKESKEQTKVTVKQDPQTGEFHEEEKVLLFNTLVKGNLVTPDQTDVYTFDVTDTKEVDISVVNEQNIGMTWVLYHESDMQNYVACGEDEGNVIKGKFEAKPGKYYLNVYKFDDKNGEYSLLVK", "soluble on expression in E. coli": "not soluble"},
      {"sequence": "MIMRWGEKRYHSLDYELKQMFKEKVYKIALNGGMTCPNRDGHVGTGGCIFCSSQGSGDFAGSARLSIAEQIRQGKADISSKRPVHSYIAYFQAFTNTYAPVETLRALYMEAIADPEVKILSIATRPDCLGADVLALLDEINQIKPVWVELGLQTIHPETSAYIRRGYELSVFEQAVKELRAIGITVIVHTILYLPGETKDDMLDTIHYLNHMDIQGIKLQLLHVLTHTDLAADYEKHPFYIPDMQDYIQFLGTCIAHLNPEIVIHRLTGDGPKDLLIAPLWTSNKRTVLNQLHSHLKEQDIWQGKEYYV", "soluble on expression in E. coli": "not soluble"},
      {"sequence": "MVMAAVIHKKGGPDNFVWEEVKVGSPGPGQVRLRNTAIGVNFLDTYHRAGIPHPLVVGEPPIVVGFEAAAVVEEVGPGVTDFTVGERVCTCLPPLGAYSQERLYPAEKLIKVPKDLDLDDVHLAGLMLKGMTAQYLLHQTHKVKPGDYVLIHAAAGGMGHIMVPWARHLGATVIGTVSTEEKAETARKLGCHHTINYSTQDFAEVVREITGGKGVDVVYDSIGKDTLQKSLDCLRPRGMCAAYGHASGVADPIRVVEDLGVRGSLFITRPALWHYMSNRSEIDEGSKCLFDAVKAGVLHSSVAKTFPLREAAAAHKYMGGRQTIGSIVLLPQA", "soluble on expression in E. coli": "soluble"},
      {"sequence": "DAETFHKDELDLAYDRISQQFDTDMGGMNKAPKFPMPSIYLYLLRDYALTGRQGSLQHVELTLDKMAMGGIYDTIGGGFARYSVDGAWFAPHFEKMLYDNGQLLSLYSEAYTVTKKPLYKEVIEETYTWLKREMLSPEGGFYSALDADSEGVEGKFYCWQYEELAQLIQEDFALFCAYYAITENGNWEHGMNILYKRMSDEAFAAAHSISAEALRESVSRWKNILFSERDPREHPGLDDKILASWNGIMLKGLCDAYRILGDAAILNTALMNAEFILTKLYDGKTLFHSYKNKKATIPGFLEDYTHVIDGYLALYEVSLDEQWLRQAITLVNHVIDHFYDDDEGLFFYTSRTSEKLIARKKEIFD", "soluble on expression in E. coli": "not soluble"},
      {"sequence": "MLRVIVESASNIPKTKFGKPDPIVSVIFKDEKKKTKKVDNELNPVWNEILEFDLRGIPLDFSSSLGIIVKDFETIGQNKLIGTATVALKDLTGDQSRSLPYKLISLLNEKGQDTGATIDLVIGYDPP", "soluble on expression in E. coli": "soluble"},
      {"sequence": "MRILHTSDWHLGKNLEGYSRMDEQEEFLEDFIKIVEENNIDMVVIAGDIYDTYNPPARAEKMFYSTLKKISQNGERVTLVIAGNHDNPERLVAAGPLARDHGIIMVGTPKSVVPTGEYGKHKVLSSKEGFIEIEVNGERASIITLPYPSEKRLNEVLYEEMDSEEEKVKSYGDRIKQLFDRLSENFRDDTINMVVSHLFAMGSEEGGSERNVQLGGSFIVNGDCFPKNAQYVALGHVHKPQLVPGTHKIARYSGSPIQYNKKEINFKKKCFLVNIEAGKEPIVDEIEFKVYKPIEVWKCTGVEEAIKKCEENKDRDCWVYLEIVTDKYIGEEEMKAMKSLKKDILEILPKVSVDNEIIDMASFKERPFEEIFKEFYKKERKVEPDNEVVDLLLSIINGGEAEDETHKS", "soluble on expression in E. coli": "not soluble"},
      {"sequence": "MYEGLLIDIDYLLNVVKELKINFDKKIKTLNLLIERNIPIVLYTENNKEYVDTIMKYLKIKEPAIIVEGAQIYSPFDLSYEAVFPLSINTVCKLGNWAMDRKMDMSISTDKKVIDYSEWLKELRQVNYKNAGDKLPSAVKVDICMKNDDKRIELLNFIGKNNLECYAHMYLNHVACINSIVDKGNTLKYLANKKKWDIKKFAMIGDYSKDTSIFDEVGFLMSISDFTKDFEKNFDKTLKSDMMSIV", "soluble on expression in E. coli": "soluble"},
      {"sequence": "MEYPMSYTFRATFPALFLSLMLPCALPALAADPAPAKDAAAQAPVERAPLLSRSQEDAIALERQLPREDQQQLQAGDESFLALWKPANTDAPQGAVIILPGDAESPDWPDTVGPLRRKFPDVGWSSLSITLPDAQDNTLLPREPDAAAGDANAAKPEETPKDAAAKAPDPAAEAEALAAVATAKAAADEERNKAQAELIFARIESAISFAQQNKARNIVLLGHSSGAYWAARFLNERPSPAVQKLVMVAAREPVDAAPSLLAMVPGLKIKTADFIYKNPEDQAAKARLQASKRAKGPGFTQIGLINIVGNEETEQEQMFRRIRGWVEAKEEK", "soluble on expression in E. coli": "not soluble"},
      {"sequence": "MGSDKIHHHHHHMATENALYEILTEKIKQDTLVLPTLPEVALKVRSAADDPDINLNQMSDIIAHDPALSLGMLKVANNALMGRSIKVETVPQAVTRIGLIQIKSIATAMAIEQVFVSNNDVVAMYMNKAWVKTIDIASVAISLMNIYLKENKHTSLSLDTITLASLIHNIGVLPILTEAENHPDVFANPTFLQQAIIKLSGRVGGAITRKWGFSEEFTLLAESWSDLTILPSEVHYLDFIRAGAIYHNVFKNESTKVALLNNYTKKGILPEVDYMDSDEFKGMCEDVRAMFI", "soluble on expression in E. coli": "not soluble"},
      {"sequence": "MGSDKIHHHHHHAIVSAKWERTSSLQGIQLKQASIEGLFGGKQSISILTIGRAEGYTAFIATTDSLTTTSQLAEQSRSSAAINGSYFSIKEGFSTCYLRKNEAVIDTTTTEERHLRVNGAVHMVDNNIRIIPWNDENEKKGFPLDGDILASGPLLMQDGKTCDFTTIDREFSETRHPRSAIALTKEGDIMLVAVDGRAEGHADGMSIAELAYLLRILKAHCALNLDGGGSTTLWVNGQVVNHPSDNKKFDNKGERKVHNIIAVRRLTNP", "soluble on expression in E. coli": "not soluble"},
      {"sequence": "MAHHHHHHSLNDIVEVEIVDLTHEGAGVAKVDGLVFFVENALPSEKILMRVLKVNKKIGFGKVEKYLVQSPHRNQDLDLAYLRSGIADLGHLSYPEQLKFKTKQVKDSLYKIAGIADVEVAETLGMEHPVKYRNKAQVPVRRVNGVLETGFFRKNSHNLMPLEDFFIQDPVIDQVVVALRDLLRRFDLKPYDEKEQSGLIRNLVVRRGHYSGQIMVVLVTTRPKVFRVDQLIEQVIKQFPEIVSVMQNINDQNTNAIFGKEWRTLYGQDYITDQMLGNDFQIAGLAFYQVNTEMAEKLYQTAIDFAELKKDDVVIDAYSGIGTIGLSVAKHVKEVYGVELIPEAVENSKKNAQLNNISNAHYVCDTAENAMKNWLKDGIQPTVILVDPPRKGLTESFIKASAQTGADRIAYISCNVATMARDIKLYQELGYELKKVQPVDLFPQTHHVETVALLSKLDVDKHISVEIELDEMDLTSAESKATYAQIKEYVWNKFELKVSTLYIAQIKKKCGIELREHYNKSKKDKQIIPQCTPEKEEAIMDALRHFKMIEG", "soluble on expression in E. coli": "soluble"},
      {"sequence": "MFKDFFNRTKKKKYLTVQDSKNNDVPAGIMTKCPKCKKIMYTKELAENLNVCFNCDHHIALTAYKRIEAISDEGSFTEFDKGMTSANPLDFPSYLEKIEKDQQKTGLKEAVVTGTAQLDGMKFGVAVMDSRFRMGSMGSVIGEKICRIIDYCTENRLPFILFSASGGARMQEGIISLMQMGKTSVSLKRHSDAGLLYISYLTHPTTGGVSASFASVGDINLSEPKALIGFAGRRVIEQTINEKLPDDFQTAEFLLEHGQLDKVVHRNNMRQTLSEILKIHQEVTK", "soluble on expression in E. coli": "not soluble"},
      {"sequence": "MRGRQKIAIVGAGLGGAAAATLLQQAGFDVEVFEQAPAFTRLGAGIHIGPNVMKIFRRMGLEQKLELMGSHPDFWFSRDGNTGDYLSRIPLGEFARREYGAAYITIHRGDLHALQIEAIQPGTVHFGKRLEKIVDEGDQVRLDFADGTHTVADIVIGADGIHSKIREELLGAEAPIYSGWVAHRALIRGVNLAQHADVFEPCVKWWSEDRHMMVYYTTGKRDEYYFVTGVPHEAWDFQGAFVDSSQEEMRAAFEGYHPTVQKLIDATESITKWPLRNRNPLPLWSRGRLVLLGDACHPMKPHMAQGACMAIEDAAMLTRCLQETGLSDHRTAFALYEANRKERASQVQSVSNANTWLYSQEDPAWVYGYDLYGQQLESGEAALEHHHHHH", "soluble on expression in E. coli": "soluble"}
    ]}
  ]
}
